Numbering of substitutions follows the chain as printed.
B1: SP34 (m/h chimeric) IgG (antibody, V domains shown)
VH: EVQLVESGGGLVQPKGSLKLSCAASGFTFNTYAMNWVRQAPGKGLEWVARIRSKYNNYATYYADSVKDRFTISRDDSQSILYLQMNNLKTEDTAMYYCVRHGNFGNSYVSWFAYWGQGTLVTVSS
VL: QAVVTQESALTTSPGETVTLTCRSSTGAVTTSNYANWVQEKPDHLFTGLIGGTNKRAPGVPARFSGSLIGDKAALTITGAQTEDEAIYFCALWYSNLWVFGGGTKLTVLG
notes: Murine SP34 variable domains tested as mouse/human chimeric IgG; also called SP34 IgG (m/h chimera)
B2: mAb#Nürnberg (antibody, human IgG1, lambda)
heavy: not shown
light: QTVVTQEPSLTVSPGGTVTLTCRSSTGAVTTSNYANWVQQKPGQAPRGLIGGTNKRAPGTPARFSGSLLGGKAALTLSGVQPEDEAEYYCALWYSNLWVFGGGTKLTVLGQPKAAPSVTLFPPSSEELQANKATLVCLISDFYPGAVTVAWKADSSPVKAGVETTTPSKQSNNKYAASSYLSLTPEQWKSHRSYSCQVTHEGSTVEKTVAPTECS
B3: mAb#Freiburg (antibody, human IgG1, lambda, V domains shown)
VH: EVQLVESGGGLVKPGGSLRLSCAASGFTFNTYAMNWVRQAPGKGLEWVGRIRSKYNNYATYYADSVKDRFTISRDDSKNTLYLQMNSLKTEDTAVYYCTTHGNFGNSYVSWFAYWGQGTLVTVSS
VL: QTVVTQEPSLTVSPGGTVTLTCRSSTGAVTTSNYANWVQQKPGQAPRGLIGGTNKRAPGTPARFSGSLLGGKAALTLLGAQPEDEAEYYCALWYSNLWVFGGGTKLTVLG
B4: mAb#Gladbach (antibody, human IgG1, lambda, V domains shown)
VH: B3 VH with E1Q, V37I, G49S, D76N, S77A, T80S, K89R, T90A, T99V, T100R
VL: B3 VL with N54K, K55F, R56L, L78S, A80V
B5: mAb#Köln (antibody, human IgG1, lambda)
heavy: not shown
light: B2 light with Q1E, T2L
B6: mAb#Mainz (antibody, human IgG1, lambda, V domains shown)
VH: B3 VH with E1Q, V37I, G49S, D76N, S77A, T80S, K89R, T90A, T99V, T100R
VL: B3 VL with T2A, G59W, L77I, L78T, P82A, E87D
B7: mAb#München (antibody, human IgG1, lambda, V domains shown)
VH: B3 VH
VL: B3 VL with N54K, K55F, R56L
notes: also called Munchen
B8: mAb#Bremen (antibody, human IgG1, lambda, V domains shown)
VH: B3 VH
VL: B3 VL with N54K, K55F, R56L, L78S, A80V

Key:
[1] = target: T1, recombinant cynomolgus CD3e (22-49)-Fc2(K105-K330) (cynomolgus monkey); assay: ELISA, 1 nM antigen coated, IgG titrated, anti-human F(ab')2-AP detection
T1 construct: also called cyCD3e(22-49)_Fc2(K105-K330); cyCD3 epsilon 22-49/Fc

[2] = target: T2, recombinant human CD3e (22-49)-Fc2 (K105-K330) (human); assay: ELISA, 5 nM antigen coated, IgG titrated, anti-human F(ab')2-AP detection
T2 construct: also called hCD3e(22-49)_Fc2(K105-K330); hCD3 epsilon 22-49/Fc

[3] = target: Human CD3e (22-118) Flag_chLys_avi (human); assay: SPR (Biacore T200), IgG captured on MabSelect SuRe, hCD3e analyte 4.1-999 nM, 1:1 fit
Human CD3e (22-118) Flag_chLys_avi (human), sequence (chain, as listed by the source limits assumed): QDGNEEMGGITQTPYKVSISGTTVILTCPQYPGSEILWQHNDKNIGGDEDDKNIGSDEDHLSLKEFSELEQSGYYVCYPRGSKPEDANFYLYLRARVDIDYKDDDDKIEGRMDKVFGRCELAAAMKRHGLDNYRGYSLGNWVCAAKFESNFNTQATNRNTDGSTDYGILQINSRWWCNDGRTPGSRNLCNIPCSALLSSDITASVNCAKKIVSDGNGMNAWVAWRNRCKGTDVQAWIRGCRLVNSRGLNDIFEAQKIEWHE

[4] = target: T3, human CD3 expressed on cells (Jurkat cells; human lymphocytes/PBMCs) (human, UniProt P07766 23-207); assay: flow cytometry on CD3 positive Jurkat cells, IgG titrated, anti-human F(ab')2-PE detection
T3 construct: on the cells it stands in the CD3/TCR complex; also called human CD3 epsilon; CD3 positive Jurkat cells
T3 sequence (P07766 23-207): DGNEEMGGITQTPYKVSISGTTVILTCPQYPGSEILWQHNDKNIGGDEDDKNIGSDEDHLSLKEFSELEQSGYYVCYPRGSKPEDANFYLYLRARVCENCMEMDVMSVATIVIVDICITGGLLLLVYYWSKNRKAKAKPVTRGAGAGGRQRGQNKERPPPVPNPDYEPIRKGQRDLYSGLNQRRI

[5] = target: T4, cynomolgus CD3 expressed on cynomolgus lymphocytes/PBMCs (cynomolgus monkey, UniProt Q95LI5 22-198); assay: flow cytometry on cynomolgus PBMCs (lymphocyte gate), detection with anti-human F(ab')2-PE
T4 construct: also called cynomolgus CD3 epsilon
T4 sequence (Q95LI5 22-198): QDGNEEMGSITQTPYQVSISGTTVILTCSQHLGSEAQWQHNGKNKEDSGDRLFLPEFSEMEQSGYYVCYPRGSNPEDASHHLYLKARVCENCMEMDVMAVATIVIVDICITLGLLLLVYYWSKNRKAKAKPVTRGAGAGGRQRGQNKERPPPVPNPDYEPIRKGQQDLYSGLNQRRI

[6] = target: Human CD3e (22-118) Flag_chLys_avi (human); assay: SPR (Biacore T200), IgG captured on MabSelect SuRe, hCD3e analyte, 1:1 fit; comment: only conc. 37-333 nM used for evaluation
[7] = target: Human CD3e (22-118) Flag_chLys_avi (human); assay: SPR (Biacore T200), IgG captured on MabSelect SuRe, hCD3e analyte 4.1-999 nM, 1:1 fit; comment: heterogeneous binding
[8] = target: Human CD3e (22-118) Flag_chLys_avi (human); assay: SPR (Biacore T200), IgG captured on MabSelect SuRe, hCD3e analyte 4.1-999 nM, 1:1 fit; comment: slightly heterogeneous binding
[9] = target: Human CD3e (22-118) Flag_chLys_avi (human); assay: SPR (Biacore T200), IgG captured on MabSelect SuRe, hCD3e analyte, 1:1 fit; comment: weak binding signals, only 333 nM & 999 nM evaluated

| Binder | EC50 [1] | EC50 [2] | EC50 [4] | EC50 (read off the curve) [5] | Kd [8] | koff [8] | kon [8] | other results |
| --- | --- | --- | --- | --- | --- | --- | --- | --- |
| B1 | 0.15 nM | 0.39 nM | 1.4 nM | ~3 nM |  |  |  | Kd [3]: 1.7 nM; koff [3]: 0.000835 s⁻¹; kon [3]: 487000 M⁻¹ s⁻¹ |
| B2 | 0.21 nM | 0.34 nM | 1 nM |  |  |  |  | Kd [6]: 48 nM; koff [6]: 0.00387 s⁻¹; kon [6]: 80000 M⁻¹ s⁻¹ |
| B3 | 1.26 nM | 0.91 nM | 10.7 nM | ~10 nM |  |  |  | Kd [7]: 130 nM; koff [7]: 0.00467 s⁻¹; kon [7]: 35200 M⁻¹ s⁻¹ |
| B4 | 0.21 nM | 0.38 nM | 1.4 nM | ~6 nM | 54 nM | 0.00385 s⁻¹ | 71800 M⁻¹ s⁻¹ |  |
| B5 | 0.2 nM | 0.31 nM | 1.8 nM |  | 51 nM | 0.00386 s⁻¹ | 76200 M⁻¹ s⁻¹ |  |
| B6 | 1.53 nM | 1.21 nM | 9.4 nM |  |  |  |  | Kd [9]: 600 nM; koff [9]: 0.00847 s⁻¹; kon [9]: 14200 M⁻¹ s⁻¹ |
| B7 | 1.43 nM | 0.6 nM | 6.6 nM | ~20 nM | 78 nM | 0.00658 s⁻¹ | 84000 M⁻¹ s⁻¹ |  |
| B8 | 0.8 nM | 1.1 nM | 6.3 nM | ~20 nM |  |  |  | Kd [7]: 74 nM; koff [7]: 0.00479 s⁻¹; kon [7]: 65000 M⁻¹ s⁻¹ |

Source: US20200377594A1 (MorphoSys, published 2020)
